Reference: patent publication US20170015742A1 (published 2017)

These binders were tested against recombinant human PDGF-BB (human, UniProt P01127 82-190) (assay: cell-based or functional assay).
recombinant human PDGF-BB, sequence (P01127 82-190 limits assumed): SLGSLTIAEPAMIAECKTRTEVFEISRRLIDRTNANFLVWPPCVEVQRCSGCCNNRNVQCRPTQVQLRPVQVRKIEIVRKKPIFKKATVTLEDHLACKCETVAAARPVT

| Binder | NIH-3T3 hPDGF-BB Potency IC50 [nM] |
| --- | --- |
| CODV010 cross-over DVD-Ig (PR-1571823) (bispecific antibody, human IgG1, kappa, L234A L235A) heavy: EVTLRESGPALVKPTQTLTLTCTFSGFSLSTYGMGVGWIRQPPGKALEWLANIWWDDDKYYNPSLKNRLTISKDTSKNQVVLTMTNMDPVDTATYYCARIESIGTTYSFDYWGQGTMVTVSSGEVQLVQSGSELKKPGASVKVSCKASGYTFTNYGMYWVRQAPGQGLEWMGWINTETGKPTYADDFKGRFVFSLDTSVSTAYLQISSLKAEDTAVYYCARTNYYYRSYIFYFDYWGQGTMVTVSSGGASTKGPSVFPLAPSSKSTSGGTAALGCLVKDYFPEPVTVSWNSGALTSGVHTFPAVLQSSGLYSLSSVVTVPSSSLGTQTYICNVNHKPSNTKVDKKVEPKSCDKTHTCPPCPAPEAAGGPSVFLFPPKPKDTLMISRTPEVTCVVVDVSHEDPEVKFNWYVDGVEVHNAKTKPREEQYNSTYRVVSVLTVLHQDWLNGKEYKCKVSNKALPAPIEKTISKAKGQPREPQVYTLPPSREEMTKNQVSLTCLVKGFYPSDIAVEWESNGQPENNYKTTPPVLDSDGSFFLYSKLTVDKSRWQQGNVFSCSVMHEALHNAYTQKSLSLSPGK light: DTVLTQSPATLSLSPGERATLSCRASESVSTHMHWYQQKPGQAPRLLIYGASNLESGVPARFSGSGSGTDFTLTISSLEPEDFAVYFCQQSWNDPFTFGQGTKLEIKGGGSGGGEFVLTQSPGTLSLSPGERATLSCERSSGDIGDSYVSWYQQKPGQAPRLVIYADDQRPSGIPDRFSGSGSGTDFTLTISRLEPEDFAVYYCQSYDINIDIVFGGGTKVEIKGGGSGRTVAAPSVFIFPPSDEQLKSGTASVVCLLNNFYPREAKVQWKVDNALQSGNSQESVTEQDSKDSTYSLSSTLTLSKADYEKHKVYACEVTHQGLSSPVTKSFNRGEC | 2.14 |
| 4G8.3-SS-9E8.4 DVD-Ig (PR-1564011) (bispecific antibody, human IgG1, kappa, L234A L235A) heavy: not shown light: DTVLTQSPATLSLSPGERATLSCRASESVSTHMHWYQQKPGQAPRLLIYGASNLESGVPARFSGSGSGTDFTLTISSLEPEDFAVYFCQQSWNDPFTFGQGTKLEIKRTVAAPEFVLTQSPGTLSLSPGERATLSCERSSGDIGDSYVSWYQQKPGQAPRLVIYADDQRPSGIPDRFSGSGSGTDFTLTISRLEPEDFAVYYCQSYDINIDIVFGGGTKVEIKGTVAAPSVFIFPPSDEQLKSGTASVVCLLNNFYPREAKVQWKVDNALQSGNSQESVTEQDSKDSTYSLSSTLTLSKADYEKHKVYACEVTHQGLSSPVTKSFNRGEC | 5.51 |
| CODV011 cross-over DVD-Ig (PR-1575521) (bispecific antibody, human IgG1, kappa, L234A L235A) heavy: EVQLVQSGSELKKPGASVKVSCKASGYTFTNYGMYWVRQAPGQGLEWMGWINTETGKPTYADDFKGRFVFSLDTSVSTAYLQISSLKAEDTAVYYCARTNYYYRSYIFYFDYWGQGTMVTVSSGGGGSGGGGSEFVLTQSPGTLSLSPGERATLSCERSSGDIGDSYVSWYQQKPGQAPRLVIYADDQRPSGIPDRFSGSGSGTDFTLTISRLEPEDFAVYYCQSYDINIDIVFGGGTKVEIKGGGSGASTKGPSVFPLAPSSKSTSGGTAALGCLVKDYFPEPVTVSWNSGALTSGVHTFPAVLQSSGLYSLSSVVTVPSSSLGTQTYICNVNHKPSNTKVDKKVEPKSCDKTHTCPPCPAPEAAGGPSVFLFPPKPKDTLMISRTPEVTCVVVDVSHEDPEVKFNWYVDGVEVHNAKTKPREEQYNSTYRVVSVLTVLHQDWLNGKEYKCKVSNKALPAPIEKTISKAKGQPREPQVYTLPPSREEMTKNQVSLTCLVKGFYPSDIAVEWESNGQPENNYKTTPPVLDSDGSFFLYSKLTVDKSRWQQGNVFSCSVMHEALHNAYTQKSLSLSPGK light: EVTLRESGPALVKPTQTLTLTCTFSGFSLSTYGMGVGWIRQPPGKALEWLANIWWDDDKYYNPSLKNRLTISKDTSKNQVVLTMTNMDPVDTATYYCARIESIGTTYSFDYWGQGTMVTVSSGGGGSGGGGSDTVLTQSPATLSLSPGERATLSCRASESVSTHMHWYQQKPGQAPRLLIYGASNLESGVPARFSGSGSGTDFTLTISSLEPEDFAVYFCQQSWNDPFTFGQGTKLEIKGGGSGRTVAAPSVFIFPPSDEQLKSGTASVVCLLNNFYPREAKVQWKVDNALQSGNSQESVTEQDSKDSTYSLSSTLTLSKADYEKHKVYACEVTHQGLSSPVTKSFNRGEC | 0.043 |
| CODV012 cross-over DVD-Ig (PR-1571824) (bispecific antibody, human IgG1, kappa, L234A L235A) heavy: EVQLVQSGSELKKPGASVKVSCKASGYTFTNYGMYWVRQAPGQGLEWMGWINTETGKPTYADDFKGRFVFSLDTSVSTAYLQISSLKAEDTAVYYCARTNYYYRSYIFYFDYWGQGTMVTVSSGGGGSGGGEFVLTQSPGTLSLSPGERATLSCERSSGDIGDSYVSWYQQKPGQAPRLVIYADDQRPSGIPDRFSGSGSGTDFTLTISRLEPEDFAVYYCQSYDINIDIVFGGGTKVEIKGGGSGASTKGPSVFPLAPSSKSTSGGTAALGCLVKDYFPEPVTVSWNSGALTSGVHTFPAVLQSSGLYSLSSVVTVPSSSLGTQTYICNVNHKPSNTKVDKKVEPKSCDKTHTCPPCPAPEAAGGPSVFLFPPKPKDTLMISRTPEVTCVVVDVSHEDPEVKFNWYVDGVEVHNAKTKPREEQYNSTYRVVSVLTVLHQDWLNGKEYKCKVSNKALPAPIEKTISKAKGQPREPQVYTLPPSREEMTKNQVSLTCLVKGFYPSDIAVEWESNGQPENNYKTTPPVLDSDGSFFLYSKLTVDKSRWQQGNVFSCSVMHEALHNAYTQKSLSLSPGK light: EVTLRESGPALVKPTQTLTLTCTFSGFSLSTYGMGVGWIRQPPGKALEWLANIWWDDDKYYNPSLKNRLTISKDTSKNQVVLTMTNMDPVDTATYYCARIESIGTTYSFDYWGQGTMVTVSSGGGGSGGGDTVLTQSPATLSLSPGERATLSCRASESVSTHMHWYQQKPGQAPRLLIYGASNLESGVPARFSGSGSGTDFTLTISSLEPEDFAVYFCQQSWNDPFTFGQGTKLEIKGGGSGRTVAAPSVFIFPPSDEQLKSGTASVVCLLNNFYPREAKVQWKVDNALQSGNSQESVTEQDSKDSTYSLSSTLTLSKADYEKHKVYACEVTHQGLSSPVTKSFNRGEC | 0.182 |
| CODV009 cross-over DVD-Ig (PR-1571821) (bispecific antibody, human IgG1, kappa, L234A L235A) heavy: EVQLVQSGSELKKPGASVKVSCKASGYTFTNYGMYWVRQAPGQGLEWMGWINTETGKPTYADDFKGRFVFSLDTSVSTAYLQISSLKAEDTAVYYCARTNYYYRSYIFYFDYWGQGTMVTVSSGEVTLRESGPALVKPTQTLTLTCTFSGFSLSTYGMGVGWIRQPPGKALEWLANIWWDDDKYYNPSLKNRLTISKDTSKNQVVLTMTNMDPVDTATYYCARIESIGTTYSFDYWGQGTMVTVSSGGASTKGPSVFPLAPSSKSTSGGTAALGCLVKDYFPEPVTVSWNSGALTSGVHTFPAVLQSSGLYSLSSVVTVPSSSLGTQTYICNVNHKPSNTKVDKKVEPKSCDKTHTCPPCPAPEAAGGPSVFLFPPKPKDTLMISRTPEVTCVVVDVSHEDPEVKFNWYVDGVEVHNAKTKPREEQYNSTYRVVSVLTVLHQDWLNGKEYKCKVSNKALPAPIEKTISKAKGQPREPQVYTLPPSREEMTKNQVSLTCLVKGFYPSDIAVEWESNGQPENNYKTTPPVLDSDGSFFLYSKLTVDKSRWQQGNVFSCSVMHEALHNAYTQKSLSLSPGK light: EFVLTQSPGTLSLSPGERATLSCERSSGDIGDSYVSWYQQKPGQAPRLVIYADDQRPSGIPDRFSGSGSGTDFTLTISRLEPEDFAVYYCQSYDINIDIVFGGGTKVEIKGGGSGGGDTVLTQSPATLSLSPGERATLSCRASESVSTHMHWYQQKPGQAPRLLIYGASNLESGVPARFSGSGSGTDFTLTISSLEPEDFAVYFCQQSWNDPFTFGQGTKLEIKGGGSGRTVAAPSVFIFPPSDEQLKSGTASVVCLLNNFYPREAKVQWKVDNALQSGNSQESVTEQDSKDSTYSLSSTLTLSKADYEKHKVYACEVTHQGLSSPVTKSFNRGEC | > 5 |
| 4G8.3-SL-9E8.4E DVD-Ig (PR-1575834) (bispecific antibody, human IgG1, kappa, L234A L235A) heavy: EVQLVQSGSELKKPGASVKVSCKASGYTFTNYGMYWVRQAPGQGLEWMGWINTETGKPTYADDFKGRFVFSLDTSVSTAYLQISSLKAEDTAVYYCARTNYYYRSYIFYFDYWGQGTMVTVSSASTKGPEVTLRESGPALVKPTQTLTLTCTFSGFSLSTYGMGVGWIRQPPGKALEWLANIWWDDDKYYNPSLKNRLTISKDTSKNQVVLTMTNMDPVDTATYYCARIESIGTTYSFDYWGQGTMVTVSSASTKGPSVFPLAPSSKSTSGGTAALGCLVKDYFPEPVTVSWNSGALTSGVHTFPAVLQSSGLYSLSSVVTVPSSSLGTQTYICNVNHKPSNTKVDKKVEPKSCDKTHTCPPCPAPEAAGGPSVFLFPPKPKDTLMISRTPEVTCVVVDVSHEDPEVKFNWYVDGVEVHNAKTKPREEQYNSTYRVVSVLTVLHQDWLNGKEYKCKVSNKALPAPIEKTISKAKGQPREPQVYTLPPSREEMTKNQVSLTCLVKGFYPSDIAVEWESNGQPENNYKTTPPVLDSDGSFFLYSKLTVDKSRWQQGNVFSCSVMHEALHNAYTQKSLSLSPGK light: DTVLTQSPATLSLSPGERATLSCRASESVSTHMHWYQQKPGQAPRLLIYGASNLESGVPARFSGSGSGTDFTLTISSLEPEDFAVYFCQQSWNDPFTFGQGTKLEIKRTVAAPSVFIFPPEFVLTQSPGTLSLSPGERATLSCERSSGDIGESYVSWYQQKPGQAPRLVIYADDQRPSGIPDRFSGSGSGTDFTLTISRLEPEDFAVYYCQSYDINIDIVFGGGTKVEIKRTVAAPSVFIFPPSDEQLKSGTASVVCLLNNFYPREAKVQWKVDNALQSGNSQESVTEQDSKDSTYSLSSTLTLSKADYEKHKVYACEVTHQGLSSPVTKSFNRGEC | 0.572 |
| 4G8.3-GS-9E8.4E DVD-Ig (PR-1575832) (bispecific antibody, human IgG1, kappa, L234A L235A) heavy: EVQLVQSGSELKKPGASVKVSCKASGYTFTNYGMYWVRQAPGQGLEWMGWINTETGKPTYADDFKGRFVFSLDTSVSTAYLQISSLKAEDTAVYYCARTNYYYRSYIFYFDYWGQGTMVTVSSGGGGSGGGGSEVTLRESGPALVKPTQTLTLTCTFSGFSLSTYGMGVGWIRQPPGKALEWLANIWWDDDKYYNPSLKNRLTISKDTSKNQVVLTMTNMDPVDTATYYCARIESIGTTYSFDYWGQGTMVTVSSASTKGPSVFPLAPSSKSTSGGTAALGCLVKDYFPEPVTVSWNSGALTSGVHTFPAVLQSSGLYSLSSVVTVPSSSLGTQTYICNVNHKPSNTKVDKKVEPKSCDKTHTCPPCPAPEAAGGPSVFLFPPKPKDTLMISRTPEVTCVVVDVSHEDPEVKFNWYVDGVEVHNAKTKPREEQYNSTYRVVSVLTVLHQDWLNGKEYKCKVSNKALPAPIEKTISKAKGQPREPQVYTLPPSREEMTKNQVSLTCLVKGFYPSDIAVEWESNGQPENNYKTTPPVLDSDGSFFLYSKLTVDKSRWQQGNVFSCSVMHEALHNAYTQKSLSLSPGK light: DTVLTQSPATLSLSPGERATLSCRASESVSTHMHWYQQKPGQAPRLLIYGASNLESGVPARFSGSGSGTDFTLTISSLEPEDFAVYFCQQSWNDPFTFGQGTKLEIKRGGSGGGGSGEFVLTQSPGTLSLSPGERATLSCERSSGDIGESYVSWYQQKPGQAPRLVIYADDQRPSGIPDRFSGSGSGTDFTLTISRLEPEDFAVYYCQSYDINIDIVFGGGTKVEIKRTVAAPSVFIFPPSDEQLKSGTASVVCLLNNFYPREAKVQWKVDNALQSGNSQESVTEQDSKDSTYSLSSTLTLSKADYEKHKVYACEVTHQGLSSPVTKSFNRGEC | > 5 |
